Source: paper PMC5651008, “The Copper Homeostasis Transcription Factor CopR Is Involved in H2O2 Stress in Lactobacillus plantarum CAUH2”

Molecular target: T1, CopR (CopRHis6) (Lactobacillus plantarum CAUH2, UniProt F9UU50 1-142)
T1 sequence: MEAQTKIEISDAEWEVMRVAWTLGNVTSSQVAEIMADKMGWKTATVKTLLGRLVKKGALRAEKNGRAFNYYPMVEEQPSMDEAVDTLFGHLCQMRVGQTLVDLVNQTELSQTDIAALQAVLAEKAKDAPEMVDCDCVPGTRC
Experiment: EMSA; no Cu2+ added; 2.5 ug CopRHis6, 20 fmol probe; 20 uL: 1x LightShift binding buffer, 50 ng/uL poly(dI-dC), 2.5% glycerol, 0.05% NP-40, 5 mM MgCl2, 20 fmol probe, 2.5 ug CopRHis6; pH, salt and temperature not
Details: protein: recombinant; tags: C-terminal His6; chain copies: 2; label: 3' biotin; blunt

B1: copB promoter probe (EMSA copB-F/-R) (dsDNA)
DNA 1: GTGTTTTTCTTGACTTTTATCGTCTACAATTGTAAACTTTAGCCATAAATTACAGATGTAGACAAT
DNA 2: ATTGTCTACATCTGTAATTTATGGCTAAAGTTTACAATTGTAGACGATAAAAGTCAAGAAAAACAC
binding result: binds
